# PMC4528709, “Determinants in HIV-2 Env and tetherin required for functional interaction” (Retrovirology, 2015)
# T1: GFP-tagged ROD10 Env_(Y707A) (HIV-2 (strain ROD10), UniProt P04577 20-858, Y707A)
# T1 construct: Env protein of HIV-2 strain ROD10 with a point mutation that disrupts an endocytosis motif in the cytoplasmic tail (pROD10_(Y707A) Env); also called Y707A mutant; source: 293T, co-transfected (2 ug plasmid), in lysate; not shown: eGFP, C-terminal, kept
# T1 sequence (looked up): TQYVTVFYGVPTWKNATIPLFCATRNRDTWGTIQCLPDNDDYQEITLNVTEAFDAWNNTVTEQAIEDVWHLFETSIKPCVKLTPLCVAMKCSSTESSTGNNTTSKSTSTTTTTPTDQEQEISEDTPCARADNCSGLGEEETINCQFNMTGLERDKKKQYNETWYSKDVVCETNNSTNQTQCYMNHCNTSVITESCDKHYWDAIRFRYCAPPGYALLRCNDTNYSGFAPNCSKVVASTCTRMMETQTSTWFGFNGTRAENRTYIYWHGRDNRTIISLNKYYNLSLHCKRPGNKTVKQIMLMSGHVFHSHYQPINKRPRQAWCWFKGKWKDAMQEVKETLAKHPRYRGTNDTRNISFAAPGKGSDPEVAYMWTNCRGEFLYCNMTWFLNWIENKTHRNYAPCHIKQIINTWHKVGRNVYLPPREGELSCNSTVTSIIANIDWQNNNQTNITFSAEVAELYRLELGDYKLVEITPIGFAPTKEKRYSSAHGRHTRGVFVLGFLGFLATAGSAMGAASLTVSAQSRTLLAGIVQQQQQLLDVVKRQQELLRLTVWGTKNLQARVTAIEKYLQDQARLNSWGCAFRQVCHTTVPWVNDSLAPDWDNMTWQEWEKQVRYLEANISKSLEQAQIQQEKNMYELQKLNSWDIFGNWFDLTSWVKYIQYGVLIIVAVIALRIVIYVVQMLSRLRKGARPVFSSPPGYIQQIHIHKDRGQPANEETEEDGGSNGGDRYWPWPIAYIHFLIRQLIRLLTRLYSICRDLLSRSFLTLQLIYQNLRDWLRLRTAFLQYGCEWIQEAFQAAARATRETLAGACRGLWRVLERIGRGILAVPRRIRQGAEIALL
# B1: tetherin/BST-2 (natural protein)
# chain: MASTSYDYCRVPMEDGDKRCKLLLGIGILVLLIIVILGVPLIIFTIKANSEACRDGLRAVMECRNVTHLLQQELTEAQKGFQDVEAQAATCNHTVMALMASLDAEKAQGQKKVEELEGEITTLNHKLQDASAEVERLRRENQVLSVRIADKKYYPSSQDSS
# notes: tetherin/BST-2, human; untagged expression plasmid described in earlier work [20, 29, 38]; also called wild-type tetherin; source: 293T, co-transfected (200 ng plasmid), in lysate
# Target: T1, GFP-tagged ROD10 Env_(Y707A)
# Assay: co-IP; quantification of tetherin immunoprecipitated by GFP-tagged Env, corrected for the cellular level of the Env protein, n = 3 experiments, data not shown
# Conditions: partners not purified
binder,measurement,value
B1,efficiency at immunoprecipitating tetherin relative to the WT ROD10 Env,67%
